Measurements: patent US20080248064A1
Where two headings read alike, the source gives them in different places.

Experiments:
[1] = target: recombinant DEN-2 virus E-glycoprotein antigen (wild type, from pCB8D2-2J-2-9-1) (dengue virus serotype 2 (carboxy-terminal 20% from JE virus))
[2] = target: recombinant DEN-2 virus E-glycoprotein antigen (wild type, from pCB8D2-2J-2-9-1) (dengue virus serotype 2 (carboxy-terminal 20% from JE virus)); test: IFA, wild-type plasmid transfected cells

mAb 3H5 (antibody)
mAb reactivity (end point) [1]: > 6 | mAb reactivity (end point) [2]: > 4.4

mAb 4E5 (antibody)
mAb reactivity (end point) [1]: > 2.9 | mAb reactivity (end point) [2]: 2.6

mAb 4G2 (antibody)
mAb reactivity (end point) [1]: > 6 | mAb reactivity (end point) [2]: 3.8
